4 molecules from paper PMC8784115 (Proceedings of the National Academy of Sciences of the …, 2022) can be followed below.

Experiment [1] has as its target T1, TAZ1 domain of CREB-binding protein (CBP), mouse CBP residues 340 to 439 (mouse, UniProt P45481 340-439). Briefly: fluorescence polarisation.
Experiment [2] deals with T1, TAZ1 domain of CREB-binding protein …. The experiment can be described thus: fluorescence polarisation. This is another data set of the same source.
For experiment [3] the target is unchanged. The experiment can be described thus: NMR titration.
Experiment [4] addresses preformed complex of 15N-TAZ1 and HIF-1α (mouse | human, UniProt P45481 340-439; Q16665 776-826). The experiment can be described thus: NMR titration.
Experiment [5] has as its target T1, TAZ1 domain of CREB-binding protein …. Briefly: fluorescence polarisation. This is another data set of the same source.

No end group written: not given here. Alexa594 = Alexa594 fluorescent dye

T1 sequence (P45481 340-439): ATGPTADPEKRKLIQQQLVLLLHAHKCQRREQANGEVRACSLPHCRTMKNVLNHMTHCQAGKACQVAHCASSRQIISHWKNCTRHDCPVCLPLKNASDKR
Sequence of preformed complex of 15N-TAZ1 and HIF-1α (P45481 340-439, one chain of several): as the sequence (P45481 340-439) above

B1: Alexa594-labeled HIF-1α peptide (C800V, labelled at C780) (peptide)
chain: GSHMSDLAC(Alexa594)RLLGQSMDESGLPQLTSYDVEVNAPIQGSRNLLQGEELLRALDQVN
As for B1, the binding result in experiment [1] is recorded as “binds”.

B2: Alexa594-labeled CITED 216-269 peptide (labelled at C261) (peptide)
chain: GSHMSNVIDTDFIDEEVLMSLVIEMGLDRIKELPELWLGQNEFDFMTDFVC(Alexa594)KQQPSRVS
B2: the binding result in experiment [2] is on record as “binds”.

B3: CITED APAA peptide (CITED2 216-269 with the nonproline residues of the LPEL motif mutated to alanine) (peptide)
chain: GSHMSNVIDTDFIDEEVLMSLVIEMGLDRIKEAPAAWLGQNEFDFMTDFVCKQQPSRVS
For the molecule B3, the binding result in experiment [3] and in experiment [4] was “binds” in each case.

B4: Alexa594-labeled CITED APAA peptide (labelled at C261) (peptide)
chain: GSHMSNVIDTDFIDEEVLMSLVIEMGLDRIKEAPAAWLGQNEFDFMTDFVC(Alexa594)KQQPSRVS
As for B4, the binding result in experiment [5] is on record as “binds”.
